From the DeepSol protein solubility set come the findings set out here.

This data set is described as follows: soluble on expression in E. coli; label from the status in PepcDB or PDB records.
For “MSLVALTEDTQANANIGRLTVQTVEIADETTAIRCLDWDRERFDIEFGLRNGTTYNSFLIKGEKIALVDTSHRKFEKLYLEIVAGLIDPNTIDYLIVSHTEPDHSGLVKDILQLAPNITIVGAKVAIQFLENMVHQPFKSLQVKSGERLDLGNGHSLEFVSAPNLHWPDTILTYDHKTGILYTCDVFGMHYCDDQTYDENFFAIEEDFKYYYDCLMGPNARSVLAALKRIENLAIKTVATGHGPLLQVHISEWLGRYKNWSLEQAKTETLVALFYAEDYGYSEHLVHILGHGCTKTGVAVELIDLNTAEPQEVRELVTQASGLVIAMPSQYSLTAQAALNTILAAVHHKQAIGLLESGGGEDEPVFPLRNKFQELGLVEAFPPILIKEAPAQTTEQLCEEAGTDIGQWLTRDRTIKQIKSINTDLEKALGRISTGLYIITTKKGEIQGAMFASWVTQASLNPLGVAIAVSKERAIESLMQVGDHFVLNVLEEDNYQGLMKHFLKRFAPGADRFAGIKTYPATDGSPILAESLAYTECEITSRMDCGDHWIIYSTVHVGRVANVHAMTAVHHRKVGNHYEGHHHHHH”, the “soluble on expression in E. coli” value is listed as “soluble”. For “MSLMPDKKGYIIDIDGVIGKSVTPIPEGVEGVKKLKELGKKIIFVSNNSTRSRRILLERLRSFGLEVGEDEILVATYATARFIAREKPNAKVFTTGEEGLIEELRLAGLEIVDYDEAEYLVVGSNRKINFELMTKALRACLRGIRYIATNPDRIFPAEDGPIPGTGMIIGALYWMTGREPDVVVGKPSEVIMREALDILGLDAKDVAVVGDQIDVDVAAGKAIGAETVLVLTGVTTRENLDQMIERHGLKPDYVFNSLKDMVEALEGEGHHHHHH”, the “soluble on expression in E. coli” value is listed as “soluble”. “MGGSHHHHHHGMASALVRISKPKTFQAYLDDCHRRYSCAHCRAHLANHDDLISKSFQGSQGRAYLFNSVVNVGCGPAEERVLLTGLHAVADIHCENCKTTLGWKYEQAFESSQKYKEGKYIIELNHMIKDNGWD”: the “soluble on expression in E. coli” value is recorded as “not soluble”. For “QVQLQQPGTELVKPGASVKLSCKASGYTFTGFWIHWVKQRPGQGLEWIGHINPGNGGTNYNEKFKRMATLTVDKSSSTAYMQLSSLTSEDSAVYYCARSYSNYVRAMDYWGQGTSVTVSSAKTTAPSVYPLVPVCGGTTGSSVTLGCLVKGYFPEPVTLTWNSGSLSSGVHTFPALLQSGLYTLSSSVTVTSNTWPSQTITCNVAHPASSTKVDKKIEP” the value was “soluble”.

Turning to “MSLGNNLKKKNGADSLYYTTRTFATTKEVIQANKFVNSEKLNEIAKKTDCTYLKSPAGIFTQATLPINKIYEELSHDTINAVKLTFNSYNQPDNGKFSMKAPTYVLLLREKERQSFFEENKLTDNITSYLAVHNAIISNKPTTNQYVFTNLTRLINACVNEKQEAKKKAGDSWNEAAWEAANPDWNKVVLIPVLVQYDSSSNKNMISIQHDLQPGYVKLEGGPDGTKLKLEVTYTNFNGKEGHHHHHH”, the “soluble on expression in E. coli” value is recorded as “soluble”. For “MHHHHHHSSGRENLYFQGSTRGKVVLHTSLGDLDVELWARECPLACRNFVQLCLEGYYVNTIFHRVVKDFIVQGGDPTGTGRGGADTTFDGKPFDVETHPRLKFRYRGLVGVANLGRSSKDAENDERGRSLGTNGNQFFITLARADVLNNAYTLFGKVTGHTLYNLMKFNDLEVGKEDRPMTPPFIKSVDVLWNPFEDLVPRRLPDAPPAQKDERKRARAAGGRTTEGRARS” the value was “soluble”; for “MAHHHHHHMDMQEQISDKGADDYDDTLVELKESELLKEDEKKKTKKKLYELNELHHLVNALPYIDSYDNELEQNAKRLVEEEMNLMHKNNEIKNYLETFPLPKITYLSNDNSIIQNELKRCEENRKMQKLNFDHYNIENDVLNNKNIEEWEKTLKKYEIILENSHNALINMELMNKYKEVMWSEHMKVFNHLDINLQNNIKTLKDDIDNINKKRKLHQLSYVNELSTLQNEQKEYKKKNNMVLNEIKKLMTENMLMKYKTNMI”, “not soluble”. For the sequence “MNALPSSAEFSRAVGGDAVSREAVIRIEHLSKTFSDAAGPVLDDVSLTIRRGEIHGIIGRSGAGKSTLVRCINLLERPSAGRVIVSGREITSLRGRALRNARRDIGMIFQHFNVLSSHTVAGNVALPFKVAGLPRAEIARRIPPLLELVGLAHKADAYPSELSGGQKQRVGIARALALDPSVLLCDEATSALDPETTDQILALLRDINRKLGLTIVLITHEMHVVRDIATRVAVLDHGRVVEEGATFDVLAFPKSAVARSFLSGLVAHELPPPVAAQLLPAAVPGSDPVLRIVFTGTAAHDPIVADLVSVFGIQPNILHGRIDYVGDRPLGVLTLVAGGAGEKLPAVLSHLSSLGLVVEVIGHAVRSAVARRHSAARLEHHHHHH”, the “soluble on expression in E. coli” value is on record as “not soluble”. Regarding “SLGELPPAPSDSKRTVFLDIDETLVHVTPYPLPFVKPDATFLLQEHRRPSDPPGVSPEYLPGVSAGAAPRAALLHVYYRPFLMPFLENLLQTNRCELVAFTAALREYADPILDGIETKLGGARGSVFAARLYRQHCARAPRSKDLVHAAPSRCLSRCVLLDNSVVSLAAQLANGLLLRPFYGDPQDRELEGVLAFLLDLLEKTGDIRESMKESGMLHKVT”, the “soluble on expression in E. coli” value is on record as “soluble”.

Consider “CSPVRERRLEHQLEPGDTLAGLALKYGVTMEQIKRANRLYTNDSIFLKKTLYIPILTEPRDLFN”, for which the “soluble on expression in E. coli” value is given as “soluble”. For “MPTFTTHRQIAHSAREMFDLVADIECYPEFLPMCEALIVRSRKKCEEKTLLLADMTVGYKLVRETFTTQVFLQPKEKRIEVKYIDGPFKYLENRWAFHHTEKSNICNIEFFIDYEFKSKMLGLVMGSMFDIAFHKFTDAFERRAHRIYGSPVI” the value was “soluble”; for “STLSRFAYNGKRCPSSYNILDNSKIISEECRKELTALLHHYYPIEIDPHRTVKEKLPHMVEWWTKAHNLLCQQKIQKFQIAQVVRESNAMLREGYKTFFNTLYHNNIPLFIFSAGIGDILEEIIRQMKVFHPNIHIVSNYMDFNEDGFLQGFKGQLIHTYNKNSSVCENCGYFQQLEGKTNVILLGDSIGDLTMADGVPGVQNILKIGFLNDKVEERRERYMDSYDIVLEKDETLDVVNGLLQHILCQGVQLEMQGP”, “soluble”; for “MAEGGTPVVATKPPVDNAKMLGELKLRLMHTKKGLLAIRGELQRRAEIWGAAQEEITALEKMASDAKERIQKQSDQKREERKLAAQKRKELKQKQKEEKKEESKDEKDGADDEKNDEN”, “not soluble”. As for “SLRASDDKALQYAIAEITEIATGFGLDFYPMRYEICPAEIIYTFGAYGMPTRFSHWSFGKQFFRMKLQYDLGLSKIYELVINSDPCYAFLLDTNSLIQNKLIVAHVLAHCDFFKNNIRFSNTKRDMVESMSATAERVKAYEHKYGKEEVETFLDAVLAIQEHIDPSLMRPKLAWSIDDLEEEEVEKKKVSQYDDLWNLDNRNKKRERSNVRKKKKIPPQPEKDLLLFIEEYSRELEDWQRDILTMMREEMLYFWPQLETKIMNEGWASYY”, the “soluble on expression in E. coli” value is listed as “soluble”. To “MQDRSCYKLTQEGERLFRMQKYEKGIDLLKKALEVGTDDFSLLSAIYCQLGNAHTMLKDYEQALKFHTYDILVERLLGNKEGEAKSCANLGNIFKMKGAYNDALTFTFKQLDFAEELGDRVLKSRAYYNIATIYVERGRCTKLEAAEEKNDAKNAEATSDFENAAKYFMLNLEMSEKSEDALTMGRCYGSLGNTYYCLGDYDQSIHFHKLRLELSQQYGDRASMRRAHANIANCHALKSNMPLAIQHYKLAYNLAIEIGNKTEEAQMAYSLANALYIGKEVQKAITYFQRHLKIARSLEDISGQLRSYYSLALSFNNLCERRKALYFLVLAKRSSLQVNDTSALTDIDNLLNEILEAGQEDVLVDDIELIIDESADPAPADIEHRELRLTYFQKRNIHDKPVNTPEDPLAEDRYEKEEFFDMLAKLQSKRMNDQRVDASVLSSNLDFRVRQVDTEPDNSSTDGSEVLIDLLLNAQGRRMDDQRAPFLPGLNPNGQIILRRLNTDPGNEELDEHLVEWLMRVQGERLDEQRSELPPIKPEGQEEVDKKKEEDVTAIVMRMQAGRLEDQRAHLPNIPTSKN” belongs “not soluble”; to “MSPILAKNIVYVAQIKGQITSYTYDQFDRYITIAEQDNAEAIIIELDTPGGRADAMMNIVQRIQQSKIPVIIYVYPPGASAASAGTYIALGSHLIAMAPGTSIGACRPILGYSQNGSIIEAPPKITNYFIAYIKSLAQESGRNATIAEEFITKDLSLTPEEALKYGVIEVVARDINELLKKSNGMKTKIPVNGRYVTLNFTNVEVRYLAPSFKDKLISYITDLEHHHHHH”, “soluble”; to “DYKDDDDKVKLTCYQNGVSFTGGKAISEAKAASSQACQELCEKDAKCRFFTLASGKCSLFADDAALRPTKSDGAVSGNKRCILLED”, “soluble”. To “MSQRPTSSHDSSAPHHIPVDDCLTYDTGYRPNLPGQRTWWVFCPVTGAFDNSYALLGAMIECVARGQATLAPAWDRTFAGGIWYDFDCGADVLDGRLLMDMAVDDMQRRIERYMSTNDGQMGCKPALGFR” belongs “not soluble”. To “MSLDSSISDEDTVTVRTAKQVALVVEGQIQNVTTTAVSVEDLLQEVGGITGADAVDADLSETIPESGLEHHHHHH” belongs “not soluble”. Consider “AEAAKPATAADSKAAFKNDDQKSAYALGASLGRYMENSLKEQEKLGIKLDKDQLIAGVQDAFADKSKLSDQEIEQTLQAFEARVKSSAQAKMEKDAADNEAKGKEYREKFAKEKGVKTSSTGLVYQVVEAGKGEAPKDSDTVVVNYKGTLIDGKEFDNSYTRGEPLSFRLDGVIPGWTEGLKNIKKGGKIKLVIPPELAYGKAGVPGIPPNSTLVFDVELLDVKPAPKADAKPEADAKAADSAKK”, for which the “soluble on expression in E. coli” value is given as “soluble”. To “MGSDKIHHHHHHMKVVKFGGSSLASGAQLDKVFHIVTSDPARKAVVVSAPGKHYAEDTKVTDLLIACAEQYLATGSAPELAEAVVERYALIANELQLGQSIIEKIRDDLFTLLEGDKSNPEQYLDAVKASGEDNNAKLIAAYFRYKGVKAEYVNPKDAGLFVTNEPGNAQVLPESYQNLYRLRERDGLIIFPGFFGFSKDGDVITFSRSGSDITGSILANGLQADLYENFTDVDAVYSVNPSFVENPKEISELTYREMRELSYAGFSVFHDEALIPAFRAGIPVQIKNTNNPSAEGTRVVSKRDNTNGPVVGIASDTGFCSIYISKYLMNREIGFGRRALQILEEHGLTYEHVPSGIDDMTIILRQGQMDAATERSVIKRIEEDLHADEVIVEHHLALIMVVGEAMRHNVGTTARAAKALSEAQVNIEMINQGSSEVSMMFGVKEAEERKAVQALYQEFFAGVLIS” belongs “not soluble”. For “QSKFKKYSKMPLASGMTGKDVAEKMLHDNGIYDVRVTSTPGMLTDHYNPANKTVNLSEGVYGSNSVAAAAVAAHECGHAVQHARAYAPLKMRS” the value was “not soluble”; for “MAEGQIIKALSGFYYVLSEGRVFQCRGRGVFRKKKVTPLVGDRVVFQATSETEGYILEIGERQNELVRPPIANVEQAILVFSAVSPDFSAKLLDRFLVLVESKRIAPIIVISKIDLLDGESKEEIARYVHDYRSIGYDVIETSAVTKGGLDELALRLRGRVSVVAGQSGVGKSSLLNALRPDLRLKTGDISTHLGRGKHTTRHVELLEVAGGLVADTPGFGALEFDQIELDELPHYFPEFRTYGEGCKFRGCLHIAEPKCAVREAVEAGEIPSYRYDHYVSFVAEMKERKPRY”, “not soluble”; for “MKRILVSGGAGFIGSHLCTRLVNEGHDVICLDNFFTGSKDNIKHLMGNHHFEVVRHDVTYPYSAEVDEIYNLACPASPIHYQHDPIQTAKTSVMGAINMLGLAMRLDAKILQASTSEVYGDPIIHPQPESYWGNVNPVGYRSCYDEGKRCAETLFMDYYRQNQTRIKIIRIFNTYGPRMLPNDGRVVSNFIIQALNNEDITIYGDGKQTRSFQYIDDLIEGMVRMMDTEDDFTGPINIGNPNEFPVLELAERVIRMTGSTSKIVFKPLPTDDPKQRQPDIKLAKEKLGWQPTVELEDGLKRMIEYFKNV”, “not soluble”.
